From patent US20140087995A1 (published 2014) come the findings set out here.

For assay [1], the target named is T1, human calcitonin receptor (human, UniProt P30988 25-474).
T1 construct: whole, on cells; Used as cell membranes; also called hCTR; hCT
T1 sequence (looked up): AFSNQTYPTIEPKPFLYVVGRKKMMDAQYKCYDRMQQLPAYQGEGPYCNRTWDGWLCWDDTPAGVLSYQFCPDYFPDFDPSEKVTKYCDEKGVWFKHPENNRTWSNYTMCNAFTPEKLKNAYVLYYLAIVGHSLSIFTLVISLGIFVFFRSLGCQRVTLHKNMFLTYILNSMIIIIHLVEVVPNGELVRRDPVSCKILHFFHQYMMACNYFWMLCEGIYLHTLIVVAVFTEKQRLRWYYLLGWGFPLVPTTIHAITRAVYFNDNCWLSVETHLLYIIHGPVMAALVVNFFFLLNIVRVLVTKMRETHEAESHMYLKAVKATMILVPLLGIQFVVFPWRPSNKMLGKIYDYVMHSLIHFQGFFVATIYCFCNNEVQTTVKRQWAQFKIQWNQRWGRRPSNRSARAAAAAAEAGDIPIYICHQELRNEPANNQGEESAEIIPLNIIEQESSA
As to the kind of experiment: ratio of hCTR IC50 to hAmylin-R IC50 (reference: human amylin receptor). The method in brief:
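Scintillation proximity competition binding on cell membranes at 35 ng/μL with SPA beads, in 50 mM Hepes pH 7.4, 1 mM CaCl2, 5 mM MgCl₂, 0.1% OA, 0.02% Tween20. Incubated 120 min at 25° C with shaking. IC₅₀ from one-site competition fit.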

The target of assay [2] is T1, human calcitonin receptor. Kind of assay: SPA competition on BHK cell membranes, 125I-calcitonin as radioligand (Assay VII). The method in brief:
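BHK hCTR membranes 35 ng/μL + SPA beads 0.05 mg/well; buffer 50 mM Hepes pH 7.4, 1 mM CaCl2, 5 mM MgCl₂, 0.1% OA, 0.02% Tween20. 120 min, 25° C., shaking. Scintillation count; IC50 by one-site binding competition.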

By IC50 is commonly meant the point on the concentration scale where inhibition reaches its midpoint.

Numbered stars: 1 amine (or outer) side, 2 acyl side, 3 side chain; on linkers, the order of the positions; unused ones are H or OH. Bridge positions count the residues as written; N and C are the ends. Side chains are listed from the residue outwards. Ends that are not written are not given here. * marks the point of attachment. C20 diacid = O=C(O)CCCCCCCCCCCCCCCCCCC(=O)*; γGlu = O=C(O)[C@H](CCC(=O)[*:2])N[*:1]; AEEA = NCCOCCOCC(=O)O

B1: N^ε1-[2-[2-[2-[[(4S)-4-carboxy-4-(19-carboxynonadecanoylamino)butanoyl]amino]ethoxy]ethoxy]acetyl]-[His14,Arg17,Pro21,Pro27]-h-amylin (peptide)
peptide: K([AEEA-γGlu-C20 diacid])CNTATCATQRLAHFLRHSSPNFGAIPSSTNVGSNTY-NH2
modifications: disulfide 2-7; N-terminus assumed
SMILES: CC[C@H](C)[C@H](NC(=O)[C@H](C)NC(=O)CNC(=O)[C@H](Cc1ccccc1)NC(=O)[C@H](CC(N)=O)NC(=O)[C@@H]1CCCN1C(=O)[C@H](CO)NC(=O)[C@H](CO)NC(=O)[C@H](Cc1c[nH]cn1)NC(=O)[C@H](CCCNC(=N)N)NC(=O)[C@H](CC(C)C)NC(=O)[C@H](Cc1ccccc1)NC(=O)[C@H](Cc1c[nH]cn1)NC(=O)[C@H](C)NC(=O)[C@H](CC(C)C)NC(=O)[C@H](CCCNC(=N)N)NC(=O)[C@H](CCC(N)=O)NC(=O)[C@@H](NC(=O)[C@H](C)NC(=O)[C@@H]1CSSC[C@H](NC(=O)[C@@H](N)CCCCNC(=O)COCCOCCNC(=O)CC[C@H](NC(=O)CCCCCCCCCCCCCCCCCCC(=O)O)C(=O)O)C(=O)N[C@@H](CC(N)=O)C(=O)N[C@@H]([C@@H](C)O)C(=O)N[C@@H](C)C(=O)N[C@@H]([C@@H](C)O)C(=O)N1)[C@@H](C)O)C(=O)N1CCC[C@H]1C(=O)N[C@@H](CO)C(=O)N[C@@H](CO)C(=O)N[C@H](C(=O)N[C@@H](CC(N)=O)C(=O)N[C@H](C(=O)NCC(=O)N[C@@H](CO)C(=O)N[C@@H](CC(N)=O)C(=O)N[C@H](C(=O)N[C@@H](Cc1ccc(O)cc1)C(N)=O)[C@@H](C)O)C(C)C)[C@@H](C)O
notes: also called compound 69
Consider B1, for which, in assay [1], the “Ratio hCT/hAmylin binding” value was 65.3. Also, the IC50 in assay [2] was 8.68 nM.

B2: N^ε1-[2-[2-[2-[[(4S)-4-carboxy-4-(19-carboxynonadecanoylamino)butanoyl]amino]ethoxy]ethoxy]acetyl]-[Thr14,Arg17,Pro21,Pro27,Pro31]-h-amylin (peptide)
peptide: K([AEEA-γGlu-C20 diacid])CNTATCATQRLATFLRHSSPNFGAIPSSTPVGSNTY-NH2
modifications: disulfide 2-7; N-terminus assumed
SMILES: CC[C@H](C)[C@H](NC(=O)[C@H](C)NC(=O)CNC(=O)[C@H](Cc1ccccc1)NC(=O)[C@H](CC(N)=O)NC(=O)[C@@H]1CCCN1C(=O)[C@H](CO)NC(=O)[C@H](CO)NC(=O)[C@H](Cc1c[nH]cn1)NC(=O)[C@H](CCCNC(=N)N)NC(=O)[C@H](CC(C)C)NC(=O)[C@H](Cc1ccccc1)NC(=O)[C@@H](NC(=O)[C@H](C)NC(=O)[C@H](CC(C)C)NC(=O)[C@H](CCCNC(=N)N)NC(=O)[C@H](CCC(N)=O)NC(=O)[C@@H](NC(=O)[C@H](C)NC(=O)[C@@H]1CSSC[C@H](NC(=O)[C@@H](N)CCCCNC(=O)COCCOCCNC(=O)CC[C@H](NC(=O)CCCCCCCCCCCCCCCCCCC(=O)O)C(=O)O)C(=O)N[C@@H](CC(N)=O)C(=O)N[C@@H]([C@@H](C)O)C(=O)N[C@@H](C)C(=O)N[C@@H]([C@@H](C)O)C(=O)N1)[C@@H](C)O)[C@@H](C)O)C(=O)N1CCC[C@H]1C(=O)N[C@@H](CO)C(=O)N[C@@H](CO)C(=O)N[C@H](C(=O)N1CCC[C@H]1C(=O)N[C@H](C(=O)NCC(=O)N[C@@H](CO)C(=O)N[C@@H](CC(N)=O)C(=O)N[C@H](C(=O)N[C@@H](Cc1ccc(O)cc1)C(N)=O)[C@@H](C)O)C(C)C)[C@@H](C)O
notes: also called compound 75
For the molecule B2, the “Ratio hCT/hAmylin binding” value in assay [1] was 91.4. In assay [2], the IC50 turned out to be 60.9 nM.

B3: N^ε1-[(4S)-4-carboxy-4-(19-carboxynonadecanoylamino)butanoyl]-[Ala14,Arg17,Pro21,Pro27,Pro34]-h-amylin (peptide)
peptide: K([γGlu-C20 diacid])CNTATCATQRLAAFLRHSSPNFGAIPSSTNVGPNTY-NH2
modifications: disulfide 2-7; N-terminus assumed
SMILES: CC[C@H](C)[C@H](NC(=O)[C@H](C)NC(=O)CNC(=O)[C@H](Cc1ccccc1)NC(=O)[C@H](CC(N)=O)NC(=O)[C@@H]1CCCN1C(=O)[C@H](CO)NC(=O)[C@H](CO)NC(=O)[C@H](Cc1c[nH]cn1)NC(=O)[C@H](CCCNC(=N)N)NC(=O)[C@H](CC(C)C)NC(=O)[C@H](Cc1ccccc1)NC(=O)[C@H](C)NC(=O)[C@H](C)NC(=O)[C@H](CC(C)C)NC(=O)[C@H](CCCNC(=N)N)NC(=O)[C@H](CCC(N)=O)NC(=O)[C@@H](NC(=O)[C@H](C)NC(=O)[C@@H]1CSSC[C@H](NC(=O)[C@@H](N)CCCCNC(=O)CC[C@H](NC(=O)CCCCCCCCCCCCCCCCCCC(=O)O)C(=O)O)C(=O)N[C@@H](CC(N)=O)C(=O)N[C@@H]([C@@H](C)O)C(=O)N[C@@H](C)C(=O)N[C@@H]([C@@H](C)O)C(=O)N1)[C@@H](C)O)C(=O)N1CCC[C@H]1C(=O)N[C@@H](CO)C(=O)N[C@@H](CO)C(=O)N[C@H](C(=O)N[C@@H](CC(N)=O)C(=O)N[C@H](C(=O)NCC(=O)N1CCC[C@H]1C(=O)N[C@@H](CC(N)=O)C(=O)N[C@H](C(=O)N[C@@H](Cc1ccc(O)cc1)C(N)=O)[C@@H](C)O)C(C)C)[C@@H](C)O
notes: also called compound 94
For B3, in assay [1], the “Ratio hCT/hAmylin binding” value amounted to 46.3. For the same molecule, the IC50 in assay [2] stood at 6.86 nM.

B4: N^ε1-[2-[2-[2-[[(4S)-4-carboxy-4-(19-carboxynonadecanoylamino)butanoyl]amino]ethoxy]ethoxy]acetyl]-[Lys14,Arg17,Pro21,Pro27,Pro31]-h-amylin (peptide)
peptide: K([AEEA-γGlu-C20 diacid])CNTATCATQRLAKFLRHSSPNFGAIPSSTPVGSNTY-NH2
modifications: disulfide 2-7; N-terminus assumed
SMILES: CC[C@H](C)[C@H](NC(=O)[C@H](C)NC(=O)CNC(=O)[C@H](Cc1ccccc1)NC(=O)[C@H](CC(N)=O)NC(=O)[C@@H]1CCCN1C(=O)[C@H](CO)NC(=O)[C@H](CO)NC(=O)[C@H](Cc1c[nH]cn1)NC(=O)[C@H](CCCNC(=N)N)NC(=O)[C@H](CC(C)C)NC(=O)[C@H](Cc1ccccc1)NC(=O)[C@H](CCCCN)NC(=O)[C@H](C)NC(=O)[C@H](CC(C)C)NC(=O)[C@H](CCCNC(=N)N)NC(=O)[C@H](CCC(N)=O)NC(=O)[C@@H](NC(=O)[C@H](C)NC(=O)[C@@H]1CSSC[C@H](NC(=O)[C@@H](N)CCCCNC(=O)COCCOCCNC(=O)CC[C@H](NC(=O)CCCCCCCCCCCCCCCCCCC(=O)O)C(=O)O)C(=O)N[C@@H](CC(N)=O)C(=O)N[C@@H]([C@@H](C)O)C(=O)N[C@@H](C)C(=O)N[C@@H]([C@@H](C)O)C(=O)N1)[C@@H](C)O)C(=O)N1CCC[C@H]1C(=O)N[C@@H](CO)C(=O)N[C@@H](CO)C(=O)N[C@H](C(=O)N1CCC[C@H]1C(=O)N[C@H](C(=O)NCC(=O)N[C@@H](CO)C(=O)N[C@@H](CC(N)=O)C(=O)N[C@H](C(=O)N[C@@H](Cc1ccc(O)cc1)C(N)=O)[C@@H](C)O)C(C)C)[C@@H](C)O
notes: also called compound 74
Consider B4, for which the “Ratio hCT/hAmylin binding” value in assay [1] amounted to 101. Further, the IC50 in assay [2] was determined as 79.9 nM.

B5: N^ε1-[2-[2-[2-[[(4S)-4-carboxy-4-(19-carboxynonadecanoylamino)butanoyl]amino]ethoxy]ethoxy]acetyl]-[Ser14,Arg17,Pro21,Pro27,Pro31]-h-amylin (peptide)
peptide: K([AEEA-γGlu-C20 diacid])CNTATCATQRLASFLRHSSPNFGAIPSSTPVGSNTY-NH2
modifications: disulfide 2-7; N-terminus assumed
SMILES: CC[C@H](C)[C@H](NC(=O)[C@H](C)NC(=O)CNC(=O)[C@H](Cc1ccccc1)NC(=O)[C@H](CC(N)=O)NC(=O)[C@@H]1CCCN1C(=O)[C@H](CO)NC(=O)[C@H](CO)NC(=O)[C@H](Cc1c[nH]cn1)NC(=O)[C@H](CCCNC(=N)N)NC(=O)[C@H](CC(C)C)NC(=O)[C@H](Cc1ccccc1)NC(=O)[C@H](CO)NC(=O)[C@H](C)NC(=O)[C@H](CC(C)C)NC(=O)[C@H](CCCNC(=N)N)NC(=O)[C@H](CCC(N)=O)NC(=O)[C@@H](NC(=O)[C@H](C)NC(=O)[C@@H]1CSSC[C@H](NC(=O)[C@@H](N)CCCCNC(=O)COCCOCCNC(=O)CC[C@H](NC(=O)CCCCCCCCCCCCCCCCCCC(=O)O)C(=O)O)C(=O)N[C@@H](CC(N)=O)C(=O)N[C@@H]([C@@H](C)O)C(=O)N[C@@H](C)C(=O)N[C@@H]([C@@H](C)O)C(=O)N1)[C@@H](C)O)C(=O)N1CCC[C@H]1C(=O)N[C@@H](CO)C(=O)N[C@@H](CO)C(=O)N[C@H](C(=O)N1CCC[C@H]1C(=O)N[C@H](C(=O)NCC(=O)N[C@@H](CO)C(=O)N[C@@H](CC(N)=O)C(=O)N[C@H](C(=O)N[C@@H](Cc1ccc(O)cc1)C(N)=O)[C@@H](C)O)C(C)C)[C@@H](C)O
notes: also called compound 73
For the molecule B5, the “Ratio hCT/hAmylin binding” value in assay [1] was 51.7. Also, in assay [2], the IC50 came to 5.38 nM.

B6: N^ε1-[(4S)-4-carboxy-4-(19-carboxynonadecanoylamino)butanoyl]-[Ala14,Arg17,Pro21,Pro27,His34]-h-amylin (peptide)
peptide: K([γGlu-C20 diacid])CNTATCATQRLAAFLRHSSPNFGAIPSSTNVGHNTY-NH2
modifications: disulfide 2-7; N-terminus assumed
SMILES: CC[C@H](C)[C@H](NC(=O)[C@H](C)NC(=O)CNC(=O)[C@H](Cc1ccccc1)NC(=O)[C@H](CC(N)=O)NC(=O)[C@@H]1CCCN1C(=O)[C@H](CO)NC(=O)[C@H](CO)NC(=O)[C@H](Cc1c[nH]cn1)NC(=O)[C@H](CCCNC(=N)N)NC(=O)[C@H](CC(C)C)NC(=O)[C@H](Cc1ccccc1)NC(=O)[C@H](C)NC(=O)[C@H](C)NC(=O)[C@H](CC(C)C)NC(=O)[C@H](CCCNC(=N)N)NC(=O)[C@H](CCC(N)=O)NC(=O)[C@@H](NC(=O)[C@H](C)NC(=O)[C@@H]1CSSC[C@H](NC(=O)[C@@H](N)CCCCNC(=O)CC[C@H](NC(=O)CCCCCCCCCCCCCCCCCCC(=O)O)C(=O)O)C(=O)N[C@@H](CC(N)=O)C(=O)N[C@@H]([C@@H](C)O)C(=O)N[C@@H](C)C(=O)N[C@@H]([C@@H](C)O)C(=O)N1)[C@@H](C)O)C(=O)N1CCC[C@H]1C(=O)N[C@@H](CO)C(=O)N[C@@H](CO)C(=O)N[C@H](C(=O)N[C@@H](CC(N)=O)C(=O)N[C@H](C(=O)NCC(=O)N[C@@H](Cc1c[nH]cn1)C(=O)N[C@@H](CC(N)=O)C(=O)N[C@H](C(=O)N[C@@H](Cc1ccc(O)cc1)C(N)=O)[C@@H](C)O)C(C)C)[C@@H](C)O
notes: also called compound 93
Take B6: the “Ratio hCT/hAmylin binding” value in assay [1] came to 101. Moreover, in assay [2], the IC50 is 17.8 nM.
